Target: T1, wild type EPO receptor (EPOR) expressed in DA3(EPOR) cells or 3T3 fibroblasts, P14753
T1 chain: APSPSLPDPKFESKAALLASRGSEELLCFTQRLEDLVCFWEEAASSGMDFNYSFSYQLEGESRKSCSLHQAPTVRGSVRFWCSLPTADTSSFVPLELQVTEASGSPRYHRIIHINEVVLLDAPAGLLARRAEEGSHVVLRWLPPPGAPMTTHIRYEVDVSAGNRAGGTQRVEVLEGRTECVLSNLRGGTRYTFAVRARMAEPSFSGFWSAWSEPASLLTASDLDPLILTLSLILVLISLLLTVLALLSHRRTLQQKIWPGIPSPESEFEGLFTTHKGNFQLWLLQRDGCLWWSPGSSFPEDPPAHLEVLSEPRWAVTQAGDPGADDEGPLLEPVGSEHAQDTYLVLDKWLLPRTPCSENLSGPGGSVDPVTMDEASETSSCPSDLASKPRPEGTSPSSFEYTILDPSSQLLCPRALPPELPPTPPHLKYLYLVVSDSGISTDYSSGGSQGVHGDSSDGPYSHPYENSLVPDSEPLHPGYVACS

B1: murine Jak2 protein tyrosine kinase (protein)
chain: MGMACLTMTEMEATSTSPVHQNGDIPGSANSVKQIEPVLQVYLYHSLGQAEGEYLKFPSGEYVAEEICVAASKACGITPVYHNMFALMSETERIWYPPNHVFHIDESTRHDILYRIRFYFPHWYCSGSSRTYRYGVSRGAEAPLLDDFVMSYLFAQWRHDFVHGWIKVPVTHETQEECLGMAVLDMMRIAKEKDQTPLAVYNSVSYKTFLPKCVRAKIQDYHILTRKRIRYRFRRFIQQFSQCKATARNLKLKYLINLETLQSAFYTEQFEVKESARGPSGEEIFATIIITGNGGIQWSRGKHKESETLTEQDVQLYCDFPDIIDVSIKQANQECSNESRIVTVHKQDGKVLEIELSSLKEALSFVSLIDGYYRLTADAHHYLCKEVAPPAVLENIHSNCHGPISMDFAISKLKKAGNQTGLYVLRCSPKDFNKYFLTFAVERENVIEYKHCLITKNENGEYNLSGTKRNFSNLKDLLNCYQMETVRSDSIIFQFTKCCPPKPKDKSNLLVFRTNGISDVQISPTLQRHNNVNQMVFHKIRNEDLIFNESLGQGTFTKIFKGVRREVGDYGQLHKTEVLLKVLDKAHRNYSESFFEAASMMSQLSHKHLVLNYGVCVCGEENILVQEFVKFGSLDTYLKKNKNSINILWKLGVAKQLAWAMHFLEEKSLIHGNVCAKNILLIREEDRRTGNPPFIKLSDPGISITVLPKDILQERIPWVPPECIENPKNLNLATDKWSFGTTLWEICSGGDKPLSALDSQRKLQFYEDKHQLPAPKWTELANLINNCMDYEPDFRPAFRAVIRDLNSLFTPDYELLTENDMLPNMRIGALGFSGAFEDRDPTQFEERHLKFLQQLGKGNFGSVEMCRYDPLQDNTGEVVAVKKLQHSTEEHLRDFEREIEILKSLQHDNIVKYKGVCYSAGRRNLRLIMEYLPYGSLRDYLQKHKERIDHKKLLQYTSQICKGMEYLGTKRYIHRDLATRNILVENENRVKIGDFGLTKVLPQDKEYYKVKEPGESPIFWYAPESLTESKFSVASDVWSFGVVLYELFTYIEKSKSPPVEFMRMIGNDKQGQMIVFHLIELLKSNGRLPRPEGCPDEIYVIMTECWNNNVSQRPSFRDLSFGWIKSGTV
EPO-induced tyrosine phosphorylation of Jak2 in 3T3 fibroblasts expressing EPOR (Jak2 immunoprecipitation, 4G10 blot): Following stimulation of the cells with EPO, a 130 kDa band, co-migrating with Jak2, was readily detected by a monoclonal antibody against phosphotyrosine (4G10)
